These results are taken from US20250361297A1 (ADAPTAM THERAPEUTICS S L, published 2025).

In general, EC50 (read off the curve) refers to the concentration that produces a half-maximal response. One may read the EC50 as the concentration at which the effect is half-maximal. Usually Kd stands for the equilibrium constant for the complex coming apart. As a reminder, the koff is a measure of how fast the partners let go of each other. One may read the kon as a measure of how fast the partners come together.

Assay [1] addresses T1, human Siglec-15, full length, expressed on cells (human, UniProt Q6ZMC9 20-328).
T1 construct: also called hS15; MOLM-13 Siglec-15 expressing cells
T1 sequence: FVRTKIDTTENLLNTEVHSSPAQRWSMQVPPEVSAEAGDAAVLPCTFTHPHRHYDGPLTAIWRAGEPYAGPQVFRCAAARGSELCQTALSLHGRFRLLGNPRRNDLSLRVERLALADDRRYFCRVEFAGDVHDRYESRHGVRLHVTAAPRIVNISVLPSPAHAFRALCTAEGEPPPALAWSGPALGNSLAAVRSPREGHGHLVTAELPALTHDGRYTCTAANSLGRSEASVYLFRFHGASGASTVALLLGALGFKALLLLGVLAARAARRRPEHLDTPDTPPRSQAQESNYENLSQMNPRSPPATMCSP
Briefly: flow cytometry, HEK293T cells expressing human Siglec-15, anti-human IgG-PE, gMFI. For orientation: Flow cytometry measures light scatter and fluorescence of single cells or particles in a stream.
Method: (§1) Assessment of the binding of anti-Siglec-15 antibodies to HEK293T cells expressing full length human Siglec-15, or mutant human Siglec-15 (R143A) or the domain 2 of human Siglec-15 by Flow cytometry: Siglec-15+, Siglec-15+R143A, and Siglec-15 Domain 2 (D2) HEK293T cells were detached using tryple and washed once with PBS, resuspended in 1× flow cytometry buffer (PBS with 1% FBS) at approximately 1-2×10\hat{ }6 cells/mL. Then, anti-Siglec-15 mAbs were added to the cell suspension at the desired concentration, starting at 10 μg/mL and performing 1/3 dilutions. Cells were incubated with the indicated antibodies for 30-60 minutes at 4° C. in the dark to prevent degradation of the fluorescent signal. After the primary antibody incubation, cells were washed twice with PBS or flow cytometry buffer by centrifuging at 300-500× g for 5 minutes and the pellet resuspended in fresh buffer. The following antibody was added: anti-human IgG-PE at a 1:500 dilution. Cells were incubated with the secondary antibody for 30 minutes at 4° C. in the dark. Finally, cells were washed twice with PBS or flow cytometry buffer to remove any excess secondary antibody and acquired in a flow cytometer.

Assay [2] addresses T2, mouse Siglec-15, full length, expressed on HEK293T cells (mouse).
T2 construct: also called mS15; HEK293T cells expressing mouse Siglec-15
T2 chain: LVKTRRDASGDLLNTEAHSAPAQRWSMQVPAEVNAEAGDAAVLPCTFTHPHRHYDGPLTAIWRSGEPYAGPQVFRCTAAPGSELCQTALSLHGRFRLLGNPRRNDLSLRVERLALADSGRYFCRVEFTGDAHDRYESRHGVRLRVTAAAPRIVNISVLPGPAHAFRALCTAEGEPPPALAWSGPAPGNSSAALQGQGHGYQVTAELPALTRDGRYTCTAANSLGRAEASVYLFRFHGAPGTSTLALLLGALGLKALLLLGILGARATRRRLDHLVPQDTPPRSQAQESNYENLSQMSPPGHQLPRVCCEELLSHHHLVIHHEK
Briefly: IgG1 titration, flow cytometry on HEK293T cells expressing mouse Siglec-15.
Method: The antibodies were titrated against HEK293T cells expressing mouse Siglec-15 or HEK293T cells expressing a truncated human Siglec-15 consisting solely of domain 2 (FIG. 9).
For the ELISA, antigens were immobilized on high-binding plates, and the full-length IgG1 anti-Siglec-15 antibodies were titrated beginning at a concentration of 10 μg/ml. After washing, an anti-human IgG Fab-specific HRP-conjugated secondary antibody was applied for detection. Palivizumab was included as the negative control. Optical densities were measured to generate binding curves from which EC50 values were derived. In the flow cytometry assay, MOLM-13 cells expressing human Siglec-15 and MOLM-13 wild-type cells (negative control) were incubated with titrated antibodies starting at 10 μg/ml. After incubation, cells were washed and incubated with an anti-human Fc-specific secondary antibody conjugated with a fluorescent marker. Flow cytometric analysis was conducted, and fluorescence intensity was used to calculate EC50 values, providing a quantitative assessment of the antibodies' cell surface binding efficacy. HEK293T cells were genetically engineered to express full-length mouse Siglec-15 and a truncated version of human Siglec-15 encompassing only domain 2. Antibodies were titrated starting at a concentration of 10 μg/ml and detected with an anti-human Fc-specific secondary antibody to detect bound primary antibodies. […] Results were analyzed and ranked based on the EC50 values.

The target of assay [3] is T1, human Siglec-15, full length, expressed …. The assay can be described thus: IgG1 titration, flow cytometry on MOLM-13 human Siglec-15 cells.
Method: Complementary to the ELISA, flow cytometry assays provided insight into the binding behavior of the antibodies on the cell surface. Here, titration of the antibodies began at the same concentration of 10 μg/ml, using MOLM-13 human Siglec-15 and MOLM-13 wild-type cells as a negative control, with detection performed using an anti-human Fc secondary antibody (FIG. 8B).
In the flow cytometry assay, MOLM-13 cells expressing human Siglec-15 and MOLM-13 wild-type cells (negative control) were incubated with titrated antibodies starting at 10 μg/ml. After incubation, cells were washed and incubated with an anti-human Fc-specific secondary antibody conjugated with a fluorescent marker. Flow cytometric analysis was conducted, and fluorescence intensity was used to calculate EC50 values, providing a quantitative assessment of the antibodies' cell surface binding efficacy.
The target of assay [4] is T3, truncated human Siglec-15 comprising only domain 2 (D2), expressed on HEK293T cells (human, UniProt Q6ZMC9 168-251, limits assumed).
T3 construct: also called domain 2-only human Siglec-15; Siglec-15 Domain 2 (D2) HEK293T cells
T3 sequence: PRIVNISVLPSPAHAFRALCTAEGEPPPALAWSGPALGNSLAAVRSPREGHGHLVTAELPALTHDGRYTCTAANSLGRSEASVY
The assay can be described thus: flow cytometry, HEK293T cells expressing only domain 2 of human Siglec-15, fold change of Siglec15 gMFI relative to 2ry control.
Method: as §1

Assay [5] deals with T4, recombinant human Siglec-15-his protein (Bonopusbio) (human, UniProt Q6ZMC9 20-263).
T4 construct: Bought (CW37-50 ug in the ELISA; the SPR paragraph prints CW70-50 ug); whole entry named; also called recombinant human Siglec-15 protein
T4 sequence: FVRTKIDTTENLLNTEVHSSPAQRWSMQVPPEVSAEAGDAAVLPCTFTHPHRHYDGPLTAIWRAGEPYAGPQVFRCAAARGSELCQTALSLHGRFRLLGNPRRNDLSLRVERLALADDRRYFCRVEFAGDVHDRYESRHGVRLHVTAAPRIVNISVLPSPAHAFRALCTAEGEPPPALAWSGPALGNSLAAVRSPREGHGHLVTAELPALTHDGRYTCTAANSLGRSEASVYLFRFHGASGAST
The assay can be described thus: SPR (Biacore T200), antibody on CM5 chip, Siglec-15-his as analyte.
Method: Binding affinity determination of anti-Siglec-15 monoclonal antibodies using BIACORE surface plasmon resonance: The purified anti-Siglec-15 monoclonal antibodies (mAbs) were characterized for binding affinity and binding kinetics by Biacore T200 system (GE healthcare, Pittsburgh, PA, USA). […] Un-reacted moieties on the biosensor surface were blocked with ethanolamine. Then, serially diluted recombinant human Siglec-15-his protein (Bonopusbio, CW70-50 ug), 2-fold serial dilution in HBS-EP buffer starting at 80 nM, were respectively flown onto the chip at a flow rate of 30 pL/min. The antigen-antibody association kinetics was followed for 2 minutes, and the dissociation kinetics was followed for 10 minutes. The association and dissociation curves were fit to a 1:1 Langmuir binding model using BIAcore evaluation software. The dissociation rate (kd) and association constant (ka) rate constants were obtained using Evaluation Software. The equilibrium dissociation constant (KD) was calculated from the ratio of kd over ka.

Assay [6] has as its target T1, human Siglec-15, full length, expressed …. Briefly: flow cytometry, HEK293T cells expressing human Siglec-15, anti-human IgG-PE, MFI.
Method: Flow cytometry was used to quantify the antibodies bound to the HEK293T cells.
Then, anti-Siglec-15 mAbs were added to the cell suspension at the desired concentration, starting at 10 μg/mL and performing 1/3 dilutions. Cells were incubated with the indicated antibodies for 30-60 minutes at 4° C. in the dark to prevent degradation of the fluorescent signal. After the primary antibody incubation, cells were washed twice with PBS or flow cytometry buffer by centrifuging at 300-500× g for 5 minutes and the pellet resuspended in fresh buffer. The following antibody was added: anti-human IgG-PE at a 1:500 dilution. Cells were incubated with the secondary antibody for 30 minutes at 4° C. in the dark. Finally, cells were washed twice with PBS or flow cytometry buffer to remove any excess secondary antibody and acquired in a flow cytometer.
A further assay addresses T5, CD3 on Jurkat cells (UniProt P07766 23-207).
T5 construct: whole, on cells; Whole CD3 complex on cells; also called CD3-expressing Jurkat cells; Jurkat cells expressing CD3
The assay can be described thus: flow cytometry, Jurkat cells expressing CD3, gMFI.

The next assay has as its target recombinant CD3 (UniProt P07766 23-126; P09693 23-116). The assay can be described thus: antibody as ligand, 'Human CD3 epsilon&CD3 gamma' as analyte; legend paragraph 116 says BLI, methods paragraph 422 say Biacore SPR, table in RU. On the technique in general: Surface plasmon resonance follows binding to a sensor surface in real time, without labels.

Chain of recombinant CD3 (P07766 23-126, form in doubt, chain 1 of 2): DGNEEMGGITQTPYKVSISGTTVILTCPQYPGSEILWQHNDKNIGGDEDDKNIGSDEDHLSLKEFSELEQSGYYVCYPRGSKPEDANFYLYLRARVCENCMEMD
Chain of recombinant CD3 (P09693 23-116, form in doubt, chain 2 of 2): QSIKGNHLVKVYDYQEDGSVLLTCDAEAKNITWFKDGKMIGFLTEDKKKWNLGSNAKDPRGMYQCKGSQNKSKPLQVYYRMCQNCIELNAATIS
T5 sequence (P07766 23-207): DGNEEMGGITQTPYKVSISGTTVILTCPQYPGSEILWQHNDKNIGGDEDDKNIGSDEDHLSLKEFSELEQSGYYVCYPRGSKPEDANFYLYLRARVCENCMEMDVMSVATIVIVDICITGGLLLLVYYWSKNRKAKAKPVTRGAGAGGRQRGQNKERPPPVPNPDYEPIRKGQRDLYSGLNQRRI

B1: 5G12 (antibody, V domains shown)
VH: QVQLQQPGAELVKPGASVKMSCKASGYTFTSYWITWVIQRPGQGLEWIGDIYCGSDTMHYNEKFKNKATLTVDTSSSTAYMQLSSLTSEDSAVYYCARWWDYGSSYDYFDYWGQGTTLTVSS
VL: DIKMTQSPSSMYASLGERVTITCKASQDINSYLSWFQQKPGKSPKTLIYRANRLVDGVPSRFSGSGSGQDYSLTISSLEYEDMGIYYCLQYDEFPYTFGGGTKLEIKR
Regarding B1, the “EC50 (read off the curve)” value in assay [1] was roughly 1 nM.

B2: ZLA-1243-A01 (antibody, V domains shown)
VH: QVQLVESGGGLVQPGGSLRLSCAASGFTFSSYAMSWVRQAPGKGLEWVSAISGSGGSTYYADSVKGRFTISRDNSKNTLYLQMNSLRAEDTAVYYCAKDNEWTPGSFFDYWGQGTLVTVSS
VL: QSALTQPASVSGSPGQSITISCTGTSSDVGGYNYVSWYQQHPGKAPKLMIYDVSNRPSGVSNRFSGSKSGNTASLTISGLQAEDEADYYCSSYTSSSTRVFGGGTKVTVL
notes: Fully human, from phage display; tested as full-length human IgG1 with silenced Fc (E233P, L234V, L235A, G236 deletion, D265G, A327Q, A330S, C-terminus lysine deletion)
Regarding B2, the concentration giving a half-maximal response (EC50) was found to be 0.0753 µg/mL in assay [2] and 0.181 µg/mL in assay [3]. Besides, in assay [1], the “EC50 (read off the curve)” value was roughly 1 nM. In addition, the binding result in assay [4] is on record as “no binding”.

B3: S15B1-VH3 + VL1 (antibody, V domains shown)
VH: QVQLVQSGAEVKKPGASVKVSCKASGYAFSSSWMNWVKQAPGQGLEWIGRIYPGHGETNYNGKFKDRATMTADTSTSTVYMELSSLRSEDTAVYFCARVDNSDPYYFDYWGQGTTVTVSS
VL: DIVLTQSPASLAVSPGQRATITCRASKSVSTSGYSYMHWYQQKPGQPPKLLIYLASNLESGVPARFSGSGSGTDFTLTINPVEAEDTANYYCQHGRELPFTFGGGTKLEIK
notes: Humanized S15B1; also called humanized S15B1 VH3+VL1; huS15B1
For the molecule B3, in assay [5], the dissociation constant Kd is 0.069 nM, the koff amounted to 0.000257 s⁻¹ and the kon came out at 3.73e+06 M⁻¹ s⁻¹. For the same molecule, the “EC50 (read off the curve)” value in assay [6] is roughly 1 nM.

B4: parental anti-CD3 antibody (humanized SP34 CD3 antibody) (antibody, V domains shown)
VH: EVQLVESGGGLVKPGGSLRLSCAASGFTFNTYAMNWVRQAPGKGLEWVARIRSKYNNYATYYADSVKDRFTISRDDSKNTLYLQMNSLKTEDTAVYYCVRHGNFGNSYVSWFAYWGQGTLVTVSS
VL: QTVVTQEPSFSVSPGGTVTLTCRSSTGAVTTSNYANWVQQTPGQAPRGLIGGTNKRAPGVPARFSGSILGNKAALTITGAQADDEAEYFCALWYSNLWVFGGGTKLTVL
notes: also called anti-human CD3 humanized antibody; anti-CD3 mAb
Take B4: the “EC50 (read off the curve)” value in the assay with CD3 on Jurkat cells was roughly 0.2 nM. Also, in the assay with recombinant CD3, the Kd was 67.1 nM, the off-rate (koff) stood at 0.00713 s⁻¹ and the on-rate (kon) turned out to be 106000 M⁻¹ s⁻¹.

B5: A2A5C7E8-3 (antibody, V domains shown)
VH: EVQLVQSGAEVKKPGESLRISCKGSGYSFTTYWISWVRQMPGKGLEWMGLIDPSDSYTNYSPSFKGHVTISTDKSISTAYLQWSSLKASDTAMYYCARGGYYGSEEDYWGQGTLVTVSS
VL: EIVLTQSPGTLSLSPGERATLSCRASQSVSSSRLAWFQQKSGQAPRLLIFDASSRATGIPDRFSGSGSGTDFTLTISRLEPEDFAVYYCQQYGSSPRTFGQGTKVEFKR
In the case of B5, the concentration for a half-maximal effect (EC50 (read off the curve)) in assay [1] is roughly 0.5 nM.
